This note sets out measurements from publication PMC5710141 (Genes & Development, 2017).

As usually defined, the stoichiometry N is a count of units in the complex or per binding partner.

The data set “AUC” deals with the molecule itself. The experiment in a line: AUC.
For the next data set, the target named is Mif2c (Mif2 core) dimer (Saccharomyces cerevisiae (budding yeast), UniProt P35201 256-530). The experiment in a line: analytical ultracentrifugation.
A further data set has as its target Mif2 DHBD (Saccharomyces cerevisiae (budding yeast), UniProt P35201 256-365). The experiment in a line: analytical ultracentrifugation.

B1: Mif2 core (Mif2c) dimer, Mif2 residues 256-530 (domain or fragment, budding yeast, UniProt P35201 256-530, looked up)
chain: NTNDNEDDYIRRQASDVVRTDSIIDRNGLRKSTRVKVAPLQYWRNEKIVYKRKSNKPVLDIDKIVTYDESEDEEEILAAQRRKKQKKKPTPTRPYNYVPTGRPRGRPKKDPNAKENLIPEDPNEDIIERIESGGIENGEWLKHGILEANVKISDTKEETKDEIIAFAPNLSQTEQVKDTKDENFALEIMFDKHKEYFASGILKLPAISGQKKLSNSFRTYITFHVIQGIVEVTVCKNKFLSVKGSTFQIPAFNEYAIANRGNDEAKMFFVQVTVS
On to B1, for which the “stoichiometry N” value in the data set “AUC” turned out to be 2.

B2: 40-bp AT-rich dsDNA (dsDNA)
DNA 1: AAAGTAAAAAATAAAAAGTAGTTTATTTTTAAAAAATAAA
DNA 2: TTTATTTTTTAAAAATAAACTACTTTTTATTTTTTACTTT
As to B2, the binding result with Mif2c (Mif2 core) dimer was “binds”.

B3: 20-bp AT-rich dsDNA (dsDNA)
DNA 1: AAAGTAAAAAATAAAAAGTA
DNA 2: TACTTTTTATTTTTTACTTT
Turning to B3, the binding result in the data set with Mif2 DHBD is “binds”.
